Assay results from patent US20240158515A1 (Regeneron, published 2024).

T1: human FGFR3b expressed with a C-terminal myc-myc-hexahistidine tag (hFGFR3b.mmH) (human)
T1 construct: also called REGN3152; monomeric human FGFR3b
T1 chain: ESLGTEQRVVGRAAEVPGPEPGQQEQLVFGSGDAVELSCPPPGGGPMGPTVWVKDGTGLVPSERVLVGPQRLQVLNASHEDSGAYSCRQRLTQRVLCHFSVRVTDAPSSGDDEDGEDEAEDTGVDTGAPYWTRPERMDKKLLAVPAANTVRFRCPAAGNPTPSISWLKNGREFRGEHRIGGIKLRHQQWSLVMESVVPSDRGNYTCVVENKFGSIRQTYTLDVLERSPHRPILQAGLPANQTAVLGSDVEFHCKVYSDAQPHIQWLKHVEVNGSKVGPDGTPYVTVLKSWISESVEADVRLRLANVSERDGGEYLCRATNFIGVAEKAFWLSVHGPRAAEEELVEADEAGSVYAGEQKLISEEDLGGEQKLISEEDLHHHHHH

T2: cynomolgus FGFR3b expressed with a C-terminal myc-myc-hexahistidine tag (mfFGFR3b.mmH) (cynomolgus)
T2 construct: also called REGN3521; mf FGFR3b ecto (R357G)(E23-G377;R357G).mmH
T2 chain: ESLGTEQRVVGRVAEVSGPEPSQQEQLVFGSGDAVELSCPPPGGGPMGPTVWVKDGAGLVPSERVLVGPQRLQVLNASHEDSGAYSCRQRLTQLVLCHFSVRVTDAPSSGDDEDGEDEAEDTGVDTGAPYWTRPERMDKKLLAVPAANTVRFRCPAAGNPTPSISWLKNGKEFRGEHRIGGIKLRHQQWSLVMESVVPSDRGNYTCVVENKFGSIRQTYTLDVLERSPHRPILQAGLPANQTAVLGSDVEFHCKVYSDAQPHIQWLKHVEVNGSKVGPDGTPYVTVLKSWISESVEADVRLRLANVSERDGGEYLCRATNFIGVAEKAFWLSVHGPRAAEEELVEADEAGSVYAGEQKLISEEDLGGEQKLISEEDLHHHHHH

T3: murine FGFR3b expressed with a C-terminal myc-myc-hexahistidine tag (mFGFR3b.mmH) (murine)
T3 construct: also called REGN3215; monomeric murine FGFR3b
T3 chain: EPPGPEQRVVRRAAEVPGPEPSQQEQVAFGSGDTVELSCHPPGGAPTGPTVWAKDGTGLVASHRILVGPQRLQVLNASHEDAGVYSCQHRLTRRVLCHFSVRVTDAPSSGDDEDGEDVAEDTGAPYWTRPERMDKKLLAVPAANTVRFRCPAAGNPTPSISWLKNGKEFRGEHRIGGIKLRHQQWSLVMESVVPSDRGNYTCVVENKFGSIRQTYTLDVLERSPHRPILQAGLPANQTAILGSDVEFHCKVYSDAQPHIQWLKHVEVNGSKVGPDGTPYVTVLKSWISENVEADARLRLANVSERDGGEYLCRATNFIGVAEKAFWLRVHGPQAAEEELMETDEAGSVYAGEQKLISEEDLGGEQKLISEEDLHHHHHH

T4: human FGFR3b expressed with a C-terminal murine Fc tag (hFGFR3b.mFc) (human)
T4 construct: called dimeric; also called REGN3153; dimeric human FGFR3b
T4 chain: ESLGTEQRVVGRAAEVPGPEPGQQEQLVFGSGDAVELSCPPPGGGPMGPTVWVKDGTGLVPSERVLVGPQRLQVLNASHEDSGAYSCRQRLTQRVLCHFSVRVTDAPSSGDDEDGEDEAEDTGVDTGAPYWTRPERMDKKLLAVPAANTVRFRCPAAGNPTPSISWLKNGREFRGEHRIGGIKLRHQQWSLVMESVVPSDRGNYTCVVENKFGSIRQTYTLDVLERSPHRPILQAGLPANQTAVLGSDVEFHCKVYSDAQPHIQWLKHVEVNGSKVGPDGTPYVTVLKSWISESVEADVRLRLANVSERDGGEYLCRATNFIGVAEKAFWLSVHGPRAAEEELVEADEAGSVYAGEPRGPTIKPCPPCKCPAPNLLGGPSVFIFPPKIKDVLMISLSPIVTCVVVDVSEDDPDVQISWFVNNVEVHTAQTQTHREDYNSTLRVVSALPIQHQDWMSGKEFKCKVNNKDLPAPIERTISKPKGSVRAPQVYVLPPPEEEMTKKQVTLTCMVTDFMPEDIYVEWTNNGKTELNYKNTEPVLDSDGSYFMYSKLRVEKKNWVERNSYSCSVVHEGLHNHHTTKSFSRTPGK

B1: H4H30105P2 (antibody, human IgG4 S228P, kappa, V domains shown)
VH: EVQLVQSGAEVKKPGESLKISCKGSGYSFTSYWIAWVRQMPGKGLEWMGIIYPGDSDTRYSPSFQGQVTMSADKSIRIAYLQWSSLKASDTAMYYCARLDYSGSWFDYWGQGTLVTVSS
VL: not shown
B2: H4H30076P (antibody, human IgG4 S228P, kappa, V domains shown)
VH: EVQLVESGGGLVQPGGSLRLSCAASGFTVSSNYMSWVRQAPGKGLEWVSIIYSGGHTYYSDSVKGRFTISRHNSKNTLYLQMNSLRGGDTAVYYCARGYTSGWYGFDFWGQGTLVTVSS
VL: DIQMTQSPSSVSASVGDRVTITCRASQGISTWLAWYQQKPGKAPKLLIYAASSLQSGVPSRFSGTGSGTDFTLTISSLQPEDFATYYCQQTNSFPWTFGQGTKVEIKR
B3: H4H30093P2 (antibody, human IgG4 S228P, kappa, V domains shown)
VH: QVQLVESGGGLVKPGGSLRLSCAASGFTFNDYPMSWIRQAPGKGLEWVSYITSSSGSTIYYADSVKGRFTISRDNAKNSLYLQMNSLRAEDTAVYYCAREVVVATIGGYYGMDVWGQGTTVTVSS
VL: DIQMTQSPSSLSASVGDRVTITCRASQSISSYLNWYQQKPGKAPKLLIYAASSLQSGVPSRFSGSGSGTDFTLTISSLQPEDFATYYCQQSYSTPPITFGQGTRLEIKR
notes: HCVR 82, LCVR 90
B4: H4H30095P2 (antibody, human IgG4 S228P, kappa, V domains shown)
VH: QVQLVQSGVEVKKPGASVKVSCKASGYTFKFYGISWVRQAPGQGLEWMGWISVYNGKTKYAQKLQGRVTMTTDTSTSTAYMELRSLRSDDTAVYFCARDGDYESSGYPFDYWGQGTLVTVSS
VL: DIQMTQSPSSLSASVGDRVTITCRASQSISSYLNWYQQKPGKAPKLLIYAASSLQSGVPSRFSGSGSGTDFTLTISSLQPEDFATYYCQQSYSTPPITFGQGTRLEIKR

Tests used:
[1] = target: T1, human FGFR3b expressed with a …; assay: SPR Biacore, mAb captured on anti-hFc, 25C
Procedure: (§1) The CM5 Biacore sensor surface was derivatized by amine coupling with a monoclonal mouse anti-human Fc monoclonal antibody (REGN2567). […] Antibody-reagent association was monitored for 5 minutes while dissociation in HBS-EP running buffer was monitored for 10 minutes. At the end of each cycle, the anti-FGFR3 antibody capture surface was regenerated using a 10 sec injection of 20 mM phosphoric acid. All binding kinetics experiments were performed at 25° C.
(§2) The specific SPR-Biacore sensorgrams were obtained by a double referencing procedure. The double referencing was performed by first subtracting the signal of each injection over a reference surface (anti-hFc) from the signal over the experimental surface (anti-hFc-captured anti-FGFR3 antibodies) thereby removing contributions from refractive index changes. In addition, running buffer injections were performed to allow subtraction of the signal changes resulting from the dissociation of captured antibodies from the coupled anti-hFc surface. Kinetic association (kₐ) and dissociation (kd) rate constants were determined by fitting the real-time sensorgrams to a 1:1 binding model using Scrubber v2.0c curve fitting software.

[2] = target: T2, cynomolgus FGFR3b expressed with a …; assay: SPR Biacore, mAb captured on anti-hFc, 25C
Procedure: as §1, §2

[3] = target: T3, murine FGFR3b expressed with a …; assay: SPR Biacore, mAb captured on anti-hFc, 25C
Procedure: as §1, §2

[4] = target: T5, human FGFR3c expressed with a C-terminal myc-myc-hexahistidine tag (hFGFR3c.mmH) (human, UniProt P22607 23-375); assay: SPR Biacore, mAb captured on anti-hFc, 25C
T5 construct: also called REGN3155; monomeric human FGFR3c
Procedure: as §1, §2

[5] = target: T4, human FGFR3b expressed with a …; assay: SPR Biacore, mAb captured on anti-hFc, 25C
Procedure: as §1, §2

[6] = target: T5, human FGFR3c expressed with a …; assay: SPR Biacore, mAb captured on anti-hFc, 25C; row marked NB
Procedure: as §1, §2

[7] = target: T4, human FGFR3b expressed with a …; assay: competition ELISA: 4 nM hFGFR3b-mFc binding to plate-coated hFGF acidic
Procedure: The fixed concentration of hFGFR3b or hFGFR3c proteins was selected to be near the concentration that generated 50% of the maximal binding (EC₅₀ value) to plate-adhered hFGF acidic or hFGF basic protein. […] The plates were then developed using TMB substrate solution (BD Biosciences) according to the manufacturer's recommended procedure and absorbance at 450 nm was measured on a Victor X5 plate reader.
Binding data were analyzed using a sigmoidal (four-parameter logistic) dose-response model using GraphPad Prism software. […] Percent blocking of FGFR3 antibody at a given concentration was calculated based on the formula shown below.
The ability of anti-FGFR3 antibodies to block human FGFR3b binding to hFGF acidic protein or hFGFR3c binding to hFGF acidic or hFGF basic proteins was evaluated using a sandwich ELISA-based blocking assay.

Binder | 90 nM hFGFR3b.mmH Bind (RU) [1] | koff [1] | kon [1] | t½ [1] | 90 nM mfFGFR3b.mmH Bind (RU) [2] | Kd [2] | koff [2] | kon [2] | t½ [2] | 90 nM mFGFR3b.mmH Bind (RU) [3] | koff [3] | kon [3] | t½ [3] | 90 nM hFGFR3c.mmH Bind (RU) [4] | koff [4] | kon [4] | t½ [4] | Kd [1] | 30 nM hFGFR3b.mFc Bind (RU) [5] | Kd [5] | also measured
B1 | 158 RU | 0.00511 s⁻¹ | 438000 M⁻¹ s⁻¹ | 2.3 min | 67.8 RU | 14.7 nM | 0.00802 s⁻¹ | 547000 M⁻¹ s⁻¹ | 1.4 min | 8.3 RU | 0.00122 s⁻¹ | 149000 M⁻¹ s⁻¹ | 9.5 min | 131 RU | 0.00652 s⁻¹ | 387000 M⁻¹ s⁻¹ | 1.8 min | – | – | – | –
B2 | 198 RU | 4.39e-05 s⁻¹ | 236000 M⁻¹ s⁻¹ | 263 min | 180 RU | 0.165 nM | 3.3e-05 s⁻¹ | 200000 M⁻¹ s⁻¹ | 350 min | 201 RU | 3.61e-05 s⁻¹ | 256000 M⁻¹ s⁻¹ | 320 min | – | – | – | – | 0.186 nM | 204 RU | ≤ 0.0246 nM | Kd [3]: 0.141 nM; koff [5]: ≤ 1e-05 s⁻¹; kon [5]: 407000 M⁻¹ s⁻¹; t½ [5]: ≥ 1160 min; 90 nM hFGFR3c.mmH Bind (RU) [6]: -9.7 RU
B3 | 217 RU | 0.00209 s⁻¹ | 406000 M⁻¹ s⁻¹ | 5.5 min | – | – | – | – | – | 11.2 RU | 0.00967 s⁻¹ | 136000 M⁻¹ s⁻¹ | 1.2 min | 182 RU | 0.00334 s⁻¹ | 363000 M⁻¹ s⁻¹ | 3.5 min | 5.14 nM | 317 RU | 0.0265 nM | binding result [2]: no binding (tested: 90 nM); Kd [3]: 70.9 nM; Kd [4]: 9.2 nM; koff [5]: 1.55e-05 s⁻¹; kon [5]: 585000 M⁻¹ s⁻¹; t½ [5]: 745 min; % Blocking at 200 nM mAb [7]: 91%; IC50 [7]: 2.5 nM
B4 | 239 RU | 0.005 s⁻¹ | 698000 M⁻¹ s⁻¹ | 2.3 min | 206 RU | 8.29 nM | 0.00437 s⁻¹ | 527000 M⁻¹ s⁻¹ | 2.6 min | – | – | – | – | 222 RU | 0.00454 s⁻¹ | 575000 M⁻¹ s⁻¹ | 2.5 min | 7.16 nM | 405 RU | 0.114 nM | Kd [4]: 7.88 nM; koff [5]: 9.88e-05 s⁻¹; kon [5]: 867000 M⁻¹ s⁻¹; t½ [5]: 117 min
